Data published in the supplement of paper PMC9170038.

Test system: MS2 coat protein
Assay: apparent KD of MS2 coat protein; designed switch direction (-1 OFF switch, 1 ON switch): -1; higher = weaker reporter binding
How it was run: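 The apparent KD reported per design is the median over clusters of curve fits to normalised cluster fluorescence. The RNA switches were transcribed on Illumina chips by stalled E. coli RNA polymerase. SNAP-549-labelled MS2 coat protein was titrated from 0.7 or 1.5 nM, doubling up to 3 µM, in Tris-HCl pH 7.5 buffer containing KCl, MgCl2, BSA, DTT, tRNA and Tween-20, with no input, 200 uM small-molecule ligand, or an oligonucleotide input.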

[1] = Eterna round: R95, input ligand: FMN 200 uM
[2] = Eterna round: R95, input ligand: microRNA oligo, concentration not stated
[3] = Eterna round: R95, input ligand: none
[4] = input ligand: microRNA oligo, concentration not stated

Row | Sequence | apparent KD of MS2 coat protein (input ligand: FMN 200 uM) | apparent KD of MS2 coat protein (input ligand: none) | apparent KD of MS2 coat protein [4] | other results
1 | AUGUUGCGAGGAUAUAUAUGGAGGUUAAAAUUUGAUAUGGAACAUGAGGAUCACCCAUGUAGAAGGUGCAUAAC [JR_Ex2_Sub039] (Eterna round: R97, puzzle: Exclusion 2) | 155 nM | 57.5 nM |  | 
2 | AUUAAAAUAUAGGAUAUCGAAUAUAUUAUUUAACGAGAAGGAUGAACAUGAGGAUCACCCAUGUGGUAUCAUGG [Mat - Exclusion 6 - JL Mod - D36] (puzzle: Exclusion 6) |  |  |  | apparent KD of MS2 coat protein [1]: 157 nM; apparent KD of MS2 coat protein [2]: 298 nM; apparent KD of MS2 coat protein [3]: 402 nM
3 | AUUAAUGUCAAAGGAUAUCAGCACGAUUAGUGCUGAGAAGGUUGAACAUGAGGAUCACCCAUGUAGAUCAUUAAUAAUUUAAUU [ENG1/10-B2] (Eterna round: R96, puzzle: Exclusion NG 1) | 26.4 nM | 16.9 nM | 17.9 nM | 
4 | AUUAGCUGAGGAUAUGCAGCUUUGUUCGUCGAGUGAAAAGAACAUGAGGAUCACCCAUGUAGAAGGCAGUUGAC [Raargexe] (puzzle: Exclusion 2) |  |  |  | apparent KD of MS2 coat protein [2]: 14.8 nM
5 | AUUAGUAAUAAGGAUAUCACUAGCUGCGGCUAGUGAGAAGGUAUUACAUGAGGAUCACCCAUGUGAUCAAUUAA [E6/3-A3] (Eterna round: R97, puzzle: Exclusion 6) | 912 nM | 476 nM |  | 
6 | AUUAUAUAGACAGGAUAUUGAUUAUUAUUUUAACAUGAGGAUCACCCAUGUAGCCUUAUGUAUAGCAAGAAGGGUCAUUUAUUA [Title] (Eterna round: R96, puzzle: Exclusion NG 2) |  |  | 122 nM | 
7 | AUUAUAUAGUUAGGAUAUUGAUUAUUAUUUUAACAUGAGGAUCACCCAUGUAGCCUUAUGUAUAACAAGAAGGAACAUUUAUUA [Title] (Eterna round: R96, puzzle: Exclusion NG 2) |  |  | 97.9 nM | 
8 | AUUAUGUGAGGAUAUUAGUAGUAAAUAAAUAAAAUUAUUACUGAGAAGGCACAUGAGGAUCACCCAUGUUCCUU [Salish 062 v6] (Eterna round: R97, puzzle: Exclusion 4) | 127 nM | 24.1 nM |  | 
9 | AUUGAUAUUGAGGAUAUGCUUUUAUUUGAACAAGCAGAAGGCGAUACAUGAGGAUCACCCAUGUUUAUGGAAGU [JR_E6_Sub087] (puzzle: Exclusion 6) |  |  |  | apparent KD of MS2 coat protein [1]: 51.6 nM; apparent KD of MS2 coat protein [2]: 37.6 nM; apparent KD of MS2 coat protein [3]: 49.4 nM
10 | AUUGUAUGGGAAGGAUAUAGAAUAUUAUUUUAACAUGAGGAUCACCCAUGUAACCUUAUGUGUAGCUAGAAGGUCCGUUUAUUA [Title] (Eterna round: R96, puzzle: Exclusion NG 2) |  |  | 112 nM | 
11 | AUUGUUUAUGUAGGAUAUGCCUGGCGUGCCUUCGCAGAAGGACAUGAGGAUCACCCAUGUAUUGCGGUCUGCGUUCAGAUCGCA [salish99_ExNG1_r4_024] (Eterna round: R96, puzzle: Exclusion NG 1) |  |  | 45.2 nM | 
12 | AUUGUUUGAUACCUCUAAUACAUGAGGAUCACCCAUGUUAUCGAGGAUAUGCAGAAUAGAUUAGAGCAGAAGGCGAAGUAAUAU [JR_ExcNG3_Sub026] (Eterna round: R96, puzzle: Exclusion NG 3) | 31.1 nM | 15.6 nM | 13.3 nM | 
13 | AUUUAAUUUAAUAAGAUCACAUGAGGAUCACCCAUGUUAUAAUAGGAUAUCAGCUCGAAUAGAGCUGAGAAGGAUUAUAACAUG [ExNG3/9-A4] (Eterna round: R96, puzzle: Exclusion NG 3) | 17.2 nM | 29 nM | 138 nM | 
14 | AUUUAGCAAGCGUGAUCCUACAUGAGGAUCACCCAUGUAGUUCGUCUUAUUUGAAGACAACACAAAAGUGUUGUCUU [Omei Mir OFFv1 B8] (Eterna round: R97, puzzle: Sensor, turn-off variant 1) | 355 nM | 212 nM |  | 
15 | AUUUUGUCAGGAUAUGAGUAGUAGGACGAAAGUGUUAUUAUUUAGAAGGGACAUGAGGAUCACCCAUGUUUCUC [Bring Us a Shrubbery-02] (puzzle: Exclusion 4) |  |  |  | apparent KD of MS2 coat protein [2]: 12.2 nM
16 | AUUUUGUCAGGAUAUUGUUAGUUUAGUUGUUUGUAUUAGUUCGAGAAGGGACAUGAGGAUCACCCAUGUGAUUU [Ex4 #74] (Eterna round: R97, puzzle: Exclusion 4) | 135 nM | 114 nM |  | 

Row | Sequence | apparent KD of MS2 coat protein (input ligand: FMN 200 uM) | apparent KD of MS2 coat protein (input ligand: none) | apparent KD of MS2 coat protein [4] | other results
17 | AUUUUGUGAGGAUAUGGUAACGUUUACAUGAGGAUCACCCAUGUUUCAUGGGACUAGAGACUAGAAGGCACUAACG [JR_Ex5_Sub028] (Eterna round: R97, puzzle: Exclusion 5) | 251 nM | 279 nM |  | 
18 | AUUUUGUGAGGAUAUUAGAAGUAGAAAGUUGGUAGUAUUGCUGAGAAGGCACAUGAGGAUCACCCAUGUACAAC [JR_Ex4_Sub036] (Eterna round: R97, puzzle: Exclusion 4) | 17.6 nM | 16.7 nM |  | 
19 | AUUUUGUGAGGAUAUUAGUUGUAGAAAAUUAUUAGUUUAGCUGAGAAGGCACAUGAGGAUCACCCAUGUAAAUC [JR_Ex4_Sub043] (Eterna round: R97, puzzle: Exclusion 4) | 26.7 nM | 18.6 nM |  | 
20 | AUUUUGUGAGGAUAUUAGUUGUAGAAAGUUGUUAGUAUUGCUGAGAAGGCACAUGAGGAUCACCCAUGUACAAC [JR_Ex4_Sub038] (Eterna round: R97, puzzle: Exclusion 4) | 20.6 nM | 19.1 nM |  | 
21 | CAAAACCUAGGAUAUACAUGAGGAUCACCCAUGUCGGGCCUACGCUAAACGCGCCUCAGUAGAAGGAGGGAAAC [Usasoon] (puzzle: Exclusion 3) |  |  |  | apparent KD of MS2 coat protein [1]: 135 nM; apparent KD of MS2 coat protein [2]: 52.6 nM; apparent KD of MS2 coat protein [3]: 63.2 nM
22 | CAAGCUAUUGUAGCAACUAACAUGAGGAUCACCCAUGUAGGCAUAACUUACCUAGCUCGUUUAUACAAAUCAAUUGU [Eternabot (L2) Solution 11] (Eterna round: R97, puzzle: Sensor, turn-off variant 1) | 13.1 nM | 17.6 nM |  | 
23 | CAAUAGUGAGGAUAUCUGAUCACACCAUGAAGAAGGAGUGUAGAGAAGGCACAUGAGGAUCACCCAUGUCCCGU [Eternabot (L2) Solution 43] (Eterna round: R97, puzzle: Exclusion 4) | 37 nM | 23.9 nM |  | 
24 | CAAUUCCGAGGAUAUACAUGAGGAUCACCCAUGUCGGGCCUCAGCGUUUAGCGCUUAAGUAGAAGGUGGGUUUC [JL Riri mod 5] (puzzle: Exclusion 3) |  |  |  | apparent KD of MS2 coat protein [2]: 32.5 nM
25 | CACAUUACAAAGGAUAUCUGACCAUGCCCUGGCAGAGAAGGUUGGACAUGAGGAUCACCCAUGUGUAUCCAAGU [Eternabot (Original) Solution 6] (Eterna round: R97, puzzle: Exclusion 6) | 37.7 nM | 26.8 nM |  | 
26 | CACCAUCGUGUAAGGAUAUCGAGGCUUAGCGGGUGUGAGAAGGUACAUGAGGAUCACCCAUGUUACGAUUUGCG [Eternabot (L1) Solution 77] (Eterna round: R97, puzzle: Brourd's mod of Exclusion 4) | 28.8 nM | 25.6 nM |  | 
27 | CACCCACAUGAGGAUCACCCAUGUGAGGAUAUGAUACUAUGUACUUCGGUACAUAGUAUCAGAAGGCACAGGUG [Ex1-3: 61] (Eterna round: R96, puzzle: Exclusion 1) | 102 nM | 28 nM | 25.7 nM | 
28 | CACCCACAUGAGGAUCACCCAUGUGAGGAUAUGAUACUAUGUACUUCGGUACAUAGUAUCAGAAGGCACAGGUG [Ex1-3: 61] (puzzle: Exclusion 1) |  |  |  | apparent KD of MS2 coat protein [2]: 30.3 nM
29 | CACCGUUAAGUAGGAUAUCGUACAUGAGGAUCACCCAUGUAAUAAAUGAGAAUUUCGGAUGUAUGCGAGAAGGACUAAAUCGGC [Ostricism 45 - Jieux - Exclusion NG 2] (Eterna round: R96, puzzle: Exclusion NG 2) |  |  | 39 nM | 
30 | CACCGUUACUGAGGAUAUGGCACAUGAGGAUCACCCAUGUAAUAAAUGAGAAUUUCGGAUGUAUUCCAGAAGGCAGUAACCGGC [Ostricism 69 - Jieux - Exclusion NG 2] (Eterna round: R96, puzzle: Exclusion NG 2) | 30 nM | 27.1 nM | 23.3 nM | 
31 | CACCUACAUGAGGAUCACCCAUGUGAGGAUAUGGAACAACAAGAACAUUUACUUGUUCCCAGAAGGCACAUUGG [jun14#1] (Eterna round: R97, puzzle: Exclusion 1) | 64.3 nM | 130 nM |  | 
32 | CACGAACAUGAGGAUCACCCAUGUCAGGAUAUGAGGCUUUGCGUGCCGCAUUUUGGUCUUAGAAGGGACAGCCG [Eternabot (L2) Solution 49] (Eterna round: R97, puzzle: Exclusion 1) | 22.3 nM | 23 nM |  | 
